Reference: patent CN112794900A (2ND XIANGYA HOSPITAL CENTRAL SOUTH UNIV, dated 2021)

What was measured:
[1] = target: T1, cBIN1 Isoform II3 (cBIN1 exon 1-12&18-20) (UniProt O00499-7 1-439); assay: ELISA, antigen coated at 0.1μg/well
T1 construct: domain: cBIN1 exon 1-12&18-20; Tags are unknown; also called 缺失exon13的cBIN1 Isoform II3蛋白
T1 sequence (looked up): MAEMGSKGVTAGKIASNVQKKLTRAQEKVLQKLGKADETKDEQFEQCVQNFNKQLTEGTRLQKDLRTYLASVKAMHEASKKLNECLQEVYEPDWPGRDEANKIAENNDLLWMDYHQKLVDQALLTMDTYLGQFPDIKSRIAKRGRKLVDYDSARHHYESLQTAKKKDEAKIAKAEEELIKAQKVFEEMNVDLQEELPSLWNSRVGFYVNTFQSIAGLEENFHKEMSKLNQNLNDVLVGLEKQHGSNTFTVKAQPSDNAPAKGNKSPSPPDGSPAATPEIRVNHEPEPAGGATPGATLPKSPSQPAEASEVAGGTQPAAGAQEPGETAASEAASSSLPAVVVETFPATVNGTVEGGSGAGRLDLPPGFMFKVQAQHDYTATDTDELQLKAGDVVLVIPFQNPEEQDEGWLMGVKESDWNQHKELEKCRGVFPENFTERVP

[2] = target: T2, cBIN1 Isoform II2 (cBIN1 exon1-13&18-20) (UniProt O00499-6 1-482); assay: ELISA, antigen coated at 0.1μg/well, OD450
T2 construct: domain: cBIN1 exon1-13&18-20; tags are unknown; also called 含有exon13的cBIN1 Isoform II2蛋白
T2 sequence (looked up): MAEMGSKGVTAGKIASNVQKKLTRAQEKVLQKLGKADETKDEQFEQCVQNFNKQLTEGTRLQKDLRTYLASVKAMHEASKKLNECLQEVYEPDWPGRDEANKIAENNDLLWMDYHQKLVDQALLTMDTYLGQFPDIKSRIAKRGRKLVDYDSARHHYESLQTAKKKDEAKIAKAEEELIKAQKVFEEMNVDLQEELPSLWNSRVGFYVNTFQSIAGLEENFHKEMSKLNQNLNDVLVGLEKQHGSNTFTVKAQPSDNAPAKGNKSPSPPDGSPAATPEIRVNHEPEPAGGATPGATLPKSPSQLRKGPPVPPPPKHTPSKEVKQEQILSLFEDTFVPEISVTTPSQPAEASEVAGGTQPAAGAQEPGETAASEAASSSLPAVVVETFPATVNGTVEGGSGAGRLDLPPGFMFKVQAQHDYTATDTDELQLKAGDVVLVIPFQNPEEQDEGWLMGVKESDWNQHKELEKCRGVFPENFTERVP

EC50 [2]: 0.058 µg/mL
B1: 鼠源抗体 8G1-D7-F5 (抗人源cBIN1 exon13抗体) (antibody, V domains shown)
VH: EVQLQQSGAELVRPGASVKLSCTTSGFNIKDSYMHWVKQRPEQGLEWIGRIDPEDDDAVYAPKFQDRATMTADTSSNTAYLHLSSLTSDDTAVYYCTTSTLVATPWFFDVWGTGTTVTVSS
VL: DIQMTQTTSSLSASLGDRVTISCSASQDINNYLNWYQQKPDGTVKLLIYYTSTLHSGVPSRFSGSGSGTDYSLTITNLEPEDFATYYCQQYTHNLPWTFGGGTKLEIK
notes: Mouse hybridoma antibody; The printed light chain FR3 may lack a leading G; also called cBIN1抗体
binding result [1]: no binding (tested: 10μg/ml起始浓度, 三倍稀释, 11个检测点)
